Consider three molecules from patent US20210062263A1, “A CLINICAL […]” (priority 2016, published 2021).

What all share (assay type): cell-based, human
For series [1], the system named is keloid fibroblasts. Nature of the series: qRT-PCR relative gene expression in keloid fibroblasts. The method, then: (§1) Normal and keloid tissue samples were collected from 11 patients and were used to establish primary fibroblast cultures. Using these fibroblasts, qRT-PCR for relative gene expressions and enzyme-linked immunosorbent assay (ELISA) for relative protein expressions were performed. Fibroblasts were also treated with 200 pM activin for 24 hours to examine the effects on fibrosis-related genes.
(§2) Normal and keloid tissue samples were collected from 11 patients and used to establish primary fibroblast cell cultures as described in Example 1. Relative expressions of fibrosis-related genes were examined using qRT-PCR. Protein levels of activin and follistatin, an activin-antagonist, were also measured by ELISA and radioimmunoassay in lysates of dermal fibroblasts. Furthermore, keloid fibroblasts were treated with 1 nM follistatin for 24 hours to examine the effects on fibrosis-related genes.
(§3) Normal and keloid fibroblasts were isolated and cultured from a patient. Relative expressions of fibrosis-related genes were examined using qRT-PCR. Protein levels of activin and follistatin were also measured by ELISA and radioimmunoassay in dermal fibroblasts as described in Example 2. Furthermore, keloid fibroblasts were daily treated with 1 nM follistatin for 1, 3 and 5 days to examine the effects on fibrosis-related genes.
(§4) Normal and keloid fibroblasts were isolated and cultured in vitro using standard fibroblast cell culture protocols. Relative gene expressions were examined using qRT-PCR. Protein levels of activin and follistatin were also measured in dermal fibroblasts by enzyme-linked immunosorbent assay and radioimmunoassay respectively. Cells were also treated with 100 ng/ml follistatin for 5 days to examine the effects on the expression of fibrosis-related genes.
(§5) The upregulation of CTGF by activin A was also confirmed in the multiple patient samples (FIG. 8n).
(§6) To investigate the role of AP1 in keloid pathogenesis, fibroblasts were treated for 3 days with SR11302, an inhibitor of AP1 activity. […] Moreover, in order to examine the effects of FST288, fibroblasts were treated for 3 days or 5 days.

Series [2] concerns normal fibroblasts. In words: qRT-PCR relative gene expression in normal fibroblasts. The method, then: as §1, §2, §3, §4, §5, §6
Series [3] relates to keloid fibroblasts. In words: Activin A protein in cell lysate and media of keloid fibroblasts. The conditions noted are these: after treatment with AP1 inhibitor. The method, then:
as §1, §4, §6

For series [4], the system named is normal fibroblasts. In words: Activin A protein in cell lysate and media of normal fibroblasts. As to conditions: after treatment with AP1 inhibitor. The method, then: as §1, §4, §6
The subject of series [5] is keloid fibroblasts. In words: Tolerance of keloid fibroblasts in culture (cell death). The conditions noted are these: 3 days. The method, then: as §6
The subject of series [6] is normal fibroblasts. In words: Tolerance of normal fibroblasts in culture (cell death). As to conditions: 3 days. The procedure: as §6
Series [7] relates to keloid fibroblasts. In words: RNA sequencing of keloid fibroblast cultures with/without follistatin. The conditions noted are these: single follistatin treatment. The method, then: RNAseq was performed with/without a single follistatin treatment on normal and keloid fibroblast cultures on day 1 and day 5 (FIG. 7) to compare the extent of gene expression changes in keloid disease.

The mark [8] stands for this setting: SR11302 10 uM and 15 uM, 3 days.
[9] abbreviates: daily 1 nM follistatin, five days.

Entries after “also recorded” stand apart in the source; their conditions may differ.

With `CC1=C(/C=C/C(=C/C=C/C(C)=C/C(=O)O)c2ccc(C)cc2)C(C)(C)CCC1` [SR11302], the CTGF gene expression entry with keloid fibroblasts [1] (setting [8]) and in the series on normal fibroblasts [2] (setting [8]) was “significantly decreased” each time. For the same molecule, the INHBA gene expression result in the series on keloid fibroblasts [1] (setting [8]) and with normal fibroblasts [2] (setting [8]) was “significantly decreased” each time. Moreover, the “activin A protein in cell lysate and media” value in the series on keloid fibroblasts [3] and in the series on normal fibroblasts [4] was “significantly decreased” throughout. In addition, the “doses resulting in cell death” value with keloid fibroblasts [5] and in the series on normal fibroblasts [6] was “higher than 20 uM” in each case.

B1: activin A: dimeric protein of the TGF-β superfamily, added exogenously at 200 pM (protein, UniProt P08476 311-426, looked up)
Inhibin beta A chain: GLECDGKVNICCKKQFFVSFKDIGWNDWIIAPSGYHANYCEGECPSHIAGTSGSSLSFHSTVINHYRMRGHSPFANLKSCCVPTKLRPMSMLYYDDGQNIIKKDIQNMIVEECGCS
modifications: Inhibin beta A chain homodimer
notes: dimeric protein of the TGF-β superfamily, added exogenously at 200 pM
As for B1, in the series with keloid fibroblasts [1] (200 pM activin A, 24 hours), the CTGF gene expression entry was “significantly upregulated”, the FOSB gene expression entry was “significantly upregulated”, the IL6 gene expression result is recorded as “significantly upregulated” and the “INHBA (activin A) gene expression” value is listed as “further significant upregulation; also recorded: significantly upregulated”. Besides, in the series with keloid fibroblasts [1] (200 pM activin A, 24 hours), the JUNB gene expression result is recorded as “significantly upregulated”, the PAI1 gene expression entry was “significantly upregulated” and the TGFB2 gene expression result is recorded as “significantly upregulated”. In the series with keloid fibroblasts [1] (200 pM activin A, multiple patient samples (normal/keloid not distinguished)), the “CTGF expression in fibroblasts from multiple patients” value is recorded as “upregulation; also recorded: increased”. In the series on normal fibroblasts [2] (200 pM activin A, 24 hours), the CTGF gene expression result is “significantly upregulated”, the FOSB gene expression result is “significantly upregulated”, the IL6 gene expression entry is given as “significantly upregulated” and the “INHBA (activin A) gene expression” value is “significantly upregulated”. Also, in the series with normal fibroblasts [2] (200 pM activin A, 24 hours), the JUNB gene expression entry is given as “significantly upregulated”, the PAI1 gene expression result is on record as “significantly upregulated” and the TGFB2 gene expression entry is “significantly upregulated”.

B2: follistatin: an activin-antagonist protein; isoform not stated in these examples (protein, UniProt P19883 30-344, looked up)
Follistatin: GNCWLRQAKNGRCQVLYKTELSKEECCSTGRLSTSWTEEDVNDNTLFKWMIFNGGAPNCIPCKETCENVDCGPGKKCRMNKKNKPRCVCAPDCSNITWKGPVCGLDGKTYRNECALLKARCKEQPELEVQYQGRCKKTCRDVFCPGSSTCVVDQTNNAYCVTCNRICPEPASSEQYLCGNDGVTYSSACHLRKATCLLGRSIGLAYEGKCIKAKSCEDIQCTGGKKCLWDFKVGRGRCSLCDELCPDSKSDEPVCASDNATYASECAMKEAACSSGVLLEVKHSGSCNSISEDTEEEEEDEDQDYSFPISSILEW
For B2, in the series on keloid fibroblasts [1] (1 nM follistatin, 24 hours), the CTGF gene expression result is given as “significantly decreased” and the “activin A gene expression” value is recorded as “significantly decreased”. In addition, the “CTGF (downstream target of activins) expression” value with keloid fibroblasts [1] (100 ng/ml follistatin, vs controls) is recorded as “declined significantly”. In addition, in the series with keloid fibroblasts [1] (after treatment with follistatin (summary of Examples 1 to 3)), the “activin A expression of the gene and its protein” value is recorded as “significant downregulation”. Besides, in the series on keloid fibroblasts [1] (setting [9]), the CTGF gene expression result is “significantly decreased” and the “activin A gene expression” value was “significantly decreased”. The “activin A gene expression” value in the series with keloid fibroblasts [1] (single treatment, 100 ng/ml follistatin) was “significantly decreased”. The “INHBA expression (RNAseq)” value in the series on keloid fibroblasts [7] (5 days, 100 ng/ml) was “diminished”. In the series with keloid fibroblasts [7] (day 5, 100 ng/ml), the “CTGF expression (RNAseq)” value is given as “significantly decreased”, the “PAI1 expression (RNAseq)” value is “significantly decreased” and the “other matrix related genes (RNAseq)” value is “downregulated”.
